# In PMC10418980, “Synthesis and Evaluation of ^177Lu-DOTA-PD-L1-i and ^225Ac-HEHA-PD-L1-i as Potential Radiopharmaceuticals for Tumor Microenvironment-Targeted Radiotherapy” (International Journal of Molecular Sciences, 2023):
# Experiments:
# [1] = Stability in labeling medium (water/ascorbic acid/sodium acetate) by radio-HPLC; type: physicochemical; conditions: injectable-grade water/ascorbic acid/sodium acetate; 72 h after labeling (225Ac-HEHA: 72 h after purification); reversed-phase C18 radio-HPLC (225Ac: 1 mL fractions counted in NaI(Tl) detector)
# Procedure: (§1) The radiochemical purity of the radioconjugates was determined by reversed-phase HPLC (Waters) with radiometric and UV-vis detectors. The analysis was carried out with a Discovery C18 column (particle size: 5 µm, length: 25 cm, diameter: 4.6 mm). A linear gradient (rate flow: 1 mL/min) of CH3CN-0.1% TFA (B)/H2O-0.1%TFA (A), from 100% to 10% of A in 30 min, was used. For ^225Ac-HEHA-PD-L1-i, fractions of 1.0 mL were collected, and the activity was evaluated in a NaI(Tl) detector (Auto In-v-tron 4010; NML Inc., Houston, TX, USA).
# (§2) The ^225Ac-HEHA-PD-L1-i and ^177Lu-DOTA-PD-L1-i stability was evaluated in the medium they were obtained after labeling (water/ascorbic acid/sodium acetate) at 0.33, 3, 24, 48, and 72 h with radio-HPLC, as previously described. The conjugate solutions were diluted in human serum (5x) for stability assessment. The conjugates (n = 3) were incubated at 37 °C, and samples were taken at 0.33, 3, 24, 48, and 72 h.
# [2] = Serum stability by radio-HPLC; type: in vitro ADME, human
# Procedure: as §1, §2
# [3] = tested on: HCC827 human lung cancer cells (PD-L1 positive) vs C6 mouse glioma cells (PD-L1 negative); assay: Cellular uptake assay; type: cell-based; conditions: 1 × 10^5 cells/tube in PBS pH 7, 37 °C, 1 h; 177Lu 4 kBq, 225Ac 0.04 kBq; NaI(Tl) counting; n = 6 / n = 3 (method)
# Procedure: HCC827 human lung cancer (PD-L1 positive) and C6 mouse glioma (PD-L1 negative) cell lines were cultured in RPMI-1640 medium with penicillin and streptomycin (100 µg/mL) and fetal bovine serum (15%) in 5% CO2 at 37 °C. Cells diluted in PBS (pH 7) (1 × 10^5 cells/tube) received two different treatments: (a) ^177Lu-DOTA-PD-L1-i (4 kBq) (n = 3) and (b) ^225Ac-HEHA-PD-L1-i (0.04 kBq) (n = 3). Cells were incubated with each treatment at 37 °C for 1 h. After incubation, tubes were measured in a NaI(Tl) detector to determine the initial activity (100%). The tubes were centrifuged at 500× g for 10 min. Then, a mixture of acetic acid/0.5 M NaCl was added, and the centrifugation was repeated. The liquid was removed, and the button activity was measured, corresponding to the percentage of activity captured by the cells regarding the initial activity.
# [4] = tested on: HCC827 cells; assay: Cell viability assay (flow cytometry, Muse Count & Viability Kit); type: cell-based, human; conditions: 5 h
# Procedure: The effect of ^177Lu DOTA-PD-L1-i, ^225Ac-HEHA-PD-L1-i, and PD-L1-i on HCC827 cell viability (5 × 10^4) was determined by flow cytometry with the Muse® Count & Viability Kit from Luminex, DiaSorin, USA. Before taking readings with the Muse Cell Analyzer (Merck Millipore, Burlington, MA, USA) previously calibrated with the Muse® System Check kit, the baseline detection was established using a fresh sample of untreated cells that served to delimit the size and granularity of the cell line, as well as the basal viability of the population. Also, the reading window for dead cells was established using an aliquot of the same population treated with 0.5% Triton-X100. Once the detection window for the HCC827 cells was established to discriminate between live and dead cells, 50 µL (2 × 10^4 cells/200 µL) were taken from the cell suspension that had been treated with cold ligand (PD-L1-i, 0.1 µg), with 1.4 MBq of ^177Lu DOTA-PD-L1-i or 0.37 kBq of ^225Ac-HEHA-PD-L1-i for 5 h and then mixed with 450 µL of the viability reagent; after 5 min incubation at room temperature and in the dark, the samples were read in triplicate. For the calculation of the radiation absorbed dose to cell nuclei, the total number of nuclear transformations (N) normalized to the unit of administered activity (Bq^.s/Bq) was obtained with the A(t) mathematical integration (from t = 0 to t = 5 h). […]
# [5] = tested on: healthy mice; assay: Biodistribution in healthy mice; type: in vivo, Nu/Nu mice; conditions: tail vein, 3.7 MBq 177Lu or 3.7 kBq 225Ac, 0.5-96 h, n = 3
# Procedure: (§3) Under an approved protocol (No. 07-2018-2021), all animal procedures followed the ethical regulations for handling laboratory animals (NOM-062-ZOO-1999) and the Institutional Animal Care and Use Committee requirements. Male Nu/Nu (UPEAL, […], I.PN., Mexico City, Mexico) mice aged 6–8 weeks were maintained in a pathogen-free barrier facility. Mice were injected with 3.7 MBq (50 µL) of ^177Lu DOTA-PD-L1-I or 3.7 kBq (50 µL) of ^225Ac-HEHA-PD-L1-i in the tail vein and sacrificed at 0.5, 1, 3, 24, 72, and 96 h (n = 3). The heart, lungs, liver, pancreas, spleen, kidneys, small intestine, brain, and stomach were dissected to be measured in a NaI(Tl) radioactivity detector. The results are expressed as the percentage of injected dose (%ID) per organ. Blood samples were also extracted, and the activity was recorded as %ID/g. A second group of mice was inoculated intravenously with 1 × 10^6 HCC827 cells. The animals were treated with 3.7 MBq (50 µL) of ^177Lu DOTA-PD-L1-i (n = 3) or 3.7 kBq (50 µL) of ^225Ac-HEHA-PD-L1-i (n = 3) via tail vein injection on day five post-tumor cell inoculation. The animals were dissected as described above. In the case of ^177Lu DOTA-PD-L1-i, radioisotopic/X-ray in vivo/ex vivo images were obtained in a Preclinical Imaging System (Bruker, XTREME). For in vivo imaging, mice were anesthetized with oxygen and 2% isoflurane.
# [6] = tested on: mice intravenously injected with HCC827 lung cancer cells (PD-L1+); assay: Biodistribution and biokinetic models in mice with HCC827 lung micrometastases; type: in vivo, Nu/Nu mice
# Procedure: as §3
# The %ID values were used to obtain the biokinetic models ( qht ). The Ah(t) functions were obtained by decay-correcting the biokinetic models, that is, by adding to the biological constant (λB ) the radioactive constant (λR ), as follows (Equation (1)):(1) At=Be^−(λR+λB)t+Ce^−(λR+λB)t+De^−(λR+λB)t
# [7] = tested on: lungs of athymic mice with or without HCC827 lung micrometastases; assay: Radioisotopic/X-ray imaging; type: in vivo
# Procedure: as §3
# [8] = tested on: kidney and liver tissues from mice; assay: Histopathological assessment (H&E); type: in vivo
# Procedure: Healthy lungs, kidneys, liver, and lungs from mice injected i.v. with HCC827 cells were fixed with 4% paraformaldehyde for 24 h at room temperature, embedded in paraffin, and sectioned in 4–5 µm thick sections using a microtome. Paraffin sections of lung samples were deparaffinized in xylene and rehydrated in a series of graded alcohols. Dewaxed tissue sections were stained with hematoxylin and eosin (H&E). The sections were assessed using a light microscope (magnification of 100x) (Zeiss; Mod. Axioscope: Oberkochen, Germany). Images were acquired with a digital camera (5 MP high-speed color; AmScope; Mod.Mu500: Irvine, CA, USA).
# [9] = tested on: mice inoculated with HCC827 lung cancer cells; assay: Creatinine and liver enzyme levels; type: in vivo
# Procedure: Mouse blood samples collected at 96 h after radiopharmaceutical administration were used for the determination of alanine aminotransferase (ALT), creatinine, and aspartate aminotransferase (AST). Creatinine was measured titrimetrically. The picrate method was used. AST and ALT were quantified using a Roche Diagnostics kit for UV assays.
# [10] = lungs invaded with HCC827 cancer cells
# [11] = ex vivo lungs, radioisotopic imaging
smiles,measurement,setting,value
"CCCC[C@H]1C(=O)N(C)[C@@H](CCCC)C(=O)N[C@@H](CCCNC(=S)Nc2ccc(C[C@H]3CN(CC(=O)O)CCN(CC(=O)O)CCN(CC(=O)O)CCN3CC(=O)O)cc2)C(=O)N[C@H](C(=O)NCC(N)=O)CSCC(=O)N[C@@H](Cc2ccc(O)cc2)C(=O)N(C)[C@@H](C)C(=O)N[C@@H](CC(N)=O)C(=O)N2CCC[C@H]2C(=O)N[C@@H](Cc2c[nH]cn2)C(=O)N[C@@H](CC(C)C)C(=O)N2C[C@H](O)C[C@H]2C(=O)N[C@@H](Cc2c[nH]c3ccccc23)C(=O)N[C@@H](CO)C(=O)N[C@@H](Cc2cn(C)c3ccccc23)C(=O)N1C [^177Lu-DOTA-PD-L1-i, metal not drawn]",radiochemical purity after 72 h in water,[1],greater than 97.5 ± 0.5%
same,remaining at 72 h,"[2]; diluted in human serum (5x), 37 °C, 72 h, reversed-phase C18 radio-HPLC, n = 3, read-out: radiochemical purity after 72 h in human serum",> 97.5%
same,uptake in HCC827 cells relative to C6 cells,[3],approximately fourteen
same,net decrease in alive cells regarding the control group (representative histogram),"[4]; 177Lu 15 Gy, 225Ac 5 Gy",30%
same,net decrease viability,"[4]; 177Lu-DOTA-PD-L1-i 15 Gy (1.4 MBq/20,000 cells), 225Ac-HEHA-PD-L1-i 5 Gy (0.37 kBq/20,000 cells), PD-L1-i 0.1 µg/20,000 cells, read in triplicate",31.42 ± 2.01%
same,biodistribution profile in healthy mice,[5],rapid blood clearance with renal and hepatobiliary elimination and no accumulation in normal tissues
same,"λ, kidney, fast phase","[6]; kidneys, biokinetic model",3.65
same,"λ, kidney, slow elimination slope","[6]; kidneys, biokinetic model",0.009
same,"half-life, kidney, slow elimination slope","[6]; kidneys, t1/2 = ln2/λ",77 h
same,"half-life, kidney, fast phase","[6]; kidneys, t1/2 = ln2/λ, 177Lu 3.7 MBq, 225Ac 3.7 kBq i.v.",0.19 h
same,"λ, liver, fast phase","[6]; liver, biokinetic model",1.23
same,"λ, liver, slow phase","[6]; liver, biokinetic model",0.01
same,fraction of activity taken up in the liver cleared rapidly,"[6]; liver, fast phase (hepatobiliary elimination), 3.7 MBq i.v.",seventy-four
same,fraction of activity taken up in the liver cleared slowly,"[6]; liver, slow phase",twenty-six
same,"half-life, liver, fast phase","[6]; liver, t1/2 = ln2/λ",0.56 h
same,"half-life, liver, slow phase","[6]; liver, t1/2 = ln2/λ, 177Lu 3.7 MBq, 225Ac 3.7 kBq i.v.",69 h
same,fraction of lung uptake activity with the long half-life,[6]; [10],Ninety
same,fraction of lung uptake activity with the short half-life,[6]; [10],ten
same,"half-life, lung, long component",[6]; [10],346.5 h
same,"half-life, lung, short component",[6]; [10],17.3 h
same,"lung uptake pattern, average number of emitted photons per normalized area, mice in which metastases were not induced",[7]; [11],78 ± 32 photons/cm^2
same,"lung uptake pattern, average number of emitted photons per normalized area, mice with metastatic HCC827 cells",[7]; [11],298 ± 82 photons/cm^2
same,tissue accumulation in radioisotopic images,"[7]; in vivo and ex vivo, athymic mice with lung micrometastases, 30 min, 24 and 72 h",the only tissue that accumulated the radiotracer was the lung invaded by HCC827 cancer cells
same,histological staining (H&E) of liver and kidney,[8]; mice exposed to the radiopharmaceuticals,no pathologic changes in the liver and kidney
same,Creatinine,"[9]; 96 h after 3.7 MBq 177Lu or 3.7 kBq 225Ac, day 5 after i.v. HCC827 inoculation, mean ± SD, n = 3, control 0.198 ± 0.057",0.199 ± 0.062 mg/dL
same,Alanine Aminotransferase (ALT),"[9]; 96 h after 3.7 MBq 177Lu or 3.7 kBq 225Ac, day 5 after i.v. HCC827 inoculation, mean ± SD, n = 3, control 71 ± 7",68 ± 4 IU/L
same,Aspartate Aminotransferase (AST),"[9]; 96 h after 3.7 MBq 177Lu or 3.7 kBq 225Ac, day 5 after i.v. HCC827 inoculation, mean ± SD, n = 3, control 150 ± 13",143 ± 14 IU/L
same,effect on the function of liver and kidney,"[9]; ALT, creatinine, AST vs control group (Table A1)",No significant cytotoxic effect
"CCCC[C@H]1C(=O)N(C)[C@@H](CCCC)C(=O)N[C@@H](CCCNC(=S)Nc2ccc(CC3CN(CC(=O)O)CCN(CC(=O)O)CCN(CC(=O)O)CCN(CC(=O)O)CCN(CC(=O)O)CCN3CC(=O)O)cc2)C(=O)N[C@H](C(=O)NCC(N)=O)CSCC(=O)N[C@@H](Cc2ccc(O)cc2)C(=O)N(C)[C@@H](C)C(=O)N[C@@H](CC(N)=O)C(=O)N2CCC[C@H]2C(=O)N[C@@H](Cc2c[nH]cn2)C(=O)N[C@@H](CC(C)C)C(=O)N2C[C@H](O)C[C@H]2C(=O)N[C@@H](Cc2c[nH]c3ccccc23)C(=O)N[C@@H](CO)C(=O)N[C@@H](Cc2cn(C)c3ccccc23)C(=O)N1C (stereo partly shown) [^225Ac-HEHA-PD-L1-i, metal not drawn]",radiochemical purity after 72 h in human serum,[2],64 ± 4%
same,rate of decrease of radiochemical purity in human serum,[2],approximately 0.388 %/h
same,Ac-225 activity present in bone,"[6]; mouse, in vivo",0.3 ± 0.2 % ID/g
same,"biokinetic model A(t), kidney","[6]; mouse, in vivo",12.60e^-3.65t + 8.14e^-2.54t
same,"biokinetic model A(t), liver","[6]; mouse, in vivo",25.3e^-1.90t + 17.4e^-0.01t
same,"biokinetic model A(t), lung (HCC827 cancer cells)","[6]; mouse, in vivo",11.20e^-0.002t + 1.73e^-1.20t
same,"half-life, kidney, second component","[6]; mouse, in vivo",0.27 h
same,injected dose in kidney eliminated with half-life 0.19 h,"[6]; mouse, in vivo",12.6 % of the injected dose
same,injected dose in kidney eliminated with half-life 0.27 h,"[6]; mouse, in vivo",8.14 % of the injected dose
same,injected dose retained in liver and eliminated with the slow half-life,"[6]; mouse, in vivo",17.4 % of the injected dose
same,"half-life, kidney, fast phase","[6]; mouse, in vivo, iv",0.19 h
same,"half-life, liver, slow phase","[6]; mouse, in vivo, iv",69.3 h
same,uptake in lung micrometastases,"[6]; mouse, in vivo, iv",> 30 % ID
same,histological staining (H&E) of liver and kidney,"[8]; mouse, in vivo",no pathologic changes in the liver and kidney
same,effect on the function of liver and kidney,"[9]; mouse, in vivo",No significant cytotoxic effect
